These results are taken from patent US20200071424A1 (SHIONOGI, published 2020).

For assay [1], the target named is T1, human [1-305]-mouse chimeric EL (human; mouse, UniProt Q9WVG5 306-500).
T1 sequence: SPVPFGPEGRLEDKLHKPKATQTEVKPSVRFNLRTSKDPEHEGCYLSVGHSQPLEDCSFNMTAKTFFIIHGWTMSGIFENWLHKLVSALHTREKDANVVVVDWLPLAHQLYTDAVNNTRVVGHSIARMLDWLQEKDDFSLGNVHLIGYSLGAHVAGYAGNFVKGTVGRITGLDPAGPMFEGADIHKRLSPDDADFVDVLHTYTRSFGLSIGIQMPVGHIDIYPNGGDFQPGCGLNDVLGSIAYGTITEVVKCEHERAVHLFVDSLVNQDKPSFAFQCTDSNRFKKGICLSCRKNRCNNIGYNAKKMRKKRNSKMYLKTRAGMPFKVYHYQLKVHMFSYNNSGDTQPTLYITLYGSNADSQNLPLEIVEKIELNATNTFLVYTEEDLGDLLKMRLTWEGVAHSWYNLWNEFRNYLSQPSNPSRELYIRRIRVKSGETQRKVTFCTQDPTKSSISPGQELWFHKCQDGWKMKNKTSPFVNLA
In words: cell-based or functional assay.

Assay [2] deals with T1, human [1-305]-mouse chimeric EL. Nature of the assay: Biacore; EL captured by anti-C2-tag Ab; bivalent fit. On the procedure: The binding affinities of anti-EL antibodies were measured using Biacore. […] Then, anti-EL humanized antibodies were added and the binding affinities were calculated by bivalent fitting of BIAevaluation software.
In general terms: In SPR one partner is held on a chip, and binding of the other changes the refractive index at the surface.

In another assay the target is cynomolgus monkey EL (cynomolgus monkey). Nature of the assay: cell-based or functional assay.

Substitutions are numbered along the chain they refer to.

B1: h55A1-S5 (antibody, V domains shown)
VH: QVQLVQSGSELKKPGASVKVSCKASGYTFTNYAMNWVRQAPGQGLEWMGWINTYSGVGTYAGDFKGRFVFSLDTSVSTAYLQISSLKAEDTAVYYCARRGFYGRRFFDVWGKGTTVTVSS
VL: DIVLTQSPASLAVSPGQRATITCKASQSVDYDVDSYMHWYQQKPGQPPKLLIYAASNLASGVPARFSGSGSGTDFTLTINPVEANDTANYYCQNTIEDPPTFGGGTKVEIK
notes: humanized
With B1, in assay [1], the “Neutralizing activity IC50” value came out at 1.3 nM. In assay [2], this molecule yielded a Kd of 12 nM, a koff of 0.00033 s⁻¹ and a kon of 27000 M⁻¹ s⁻¹.

B2: h55A1-S7 (antibody, V domains shown)
VH: B1 VH with M34L, D63E
VL: B1 VL
notes: humanized
With B2, in assay [1], the “Neutralizing activity IC50” value worked out at 1 nM. Besides, in assay [2], the Kd was found to be 5.1 nM, the koff was found to be 0.00055 s⁻¹ and the kon was 110000 M⁻¹ s⁻¹.

B3: h55A1-S6 (antibody, V domains shown)
VH: B1 VH with M34L, D63E
VL: B1 VL with N94Q
notes: humanized
With B3, the “Neutralizing activity IC50” value in assay [1] worked out at 1.2 nM. In assay [2], the Kd is 1.4 nM, the koff came out at 6.3e-05 s⁻¹ and the kon came out at 47000 M⁻¹ s⁻¹.

B4: h16B3-F1 (antibody, V domains shown)
VH: EVQLVESGGGLVQPGGSLRLSCAASGFTFSGYTMSWVRQAPGKGLEWVSEISFARDRAFYPDTVKGRFTISRDNSKNTLYLQMNSLRAEDTAVYYCARLGGRNHDYWYFDVWGQGTTVTVSS
VL: DIQMTQSPSSLSASVGDRVTITCRASESVEYYGTSLMQWYQQKPGKAPKLLIYAASNVESGVPSRFSGSGSGTDFTLTISSLQPEDFATYYCQQSWKVPFTFGQGTKLEIK
notes: humanized
With B4, the “Neutralizing activity IC50” value in assay [1] stood at 2.3 nM. In assay [2], this molecule had a Kd of 5.2 nM, a koff of 0.0002 s⁻¹ and a kon of 38000 M⁻¹ s⁻¹.

B5: h16B3-F2 (antibody, V domains shown)
VH: B4 VH
VL: EIVMTQSPATLSVSPGERATLSCRASESVEYYGTSLMQWYQQKPGQAPRLLIYAASNVESGIPARFSGSGSGTEFTLTISSLQSEDFAVYYCQQSWKVPFTFGQGTKLEIK
notes: humanized
Regarding B5, the “Neutralizing activity IC50” value in assay [1] was found to be 2.4 nM. Also, in assay [2], the Kd was determined as 3.8 nM, the koff was 0.00011 s⁻¹ and the kon worked out at 29000 M⁻¹ s⁻¹.

B6: h16B3-F3 (antibody, V domains shown)
VH: B4 VH
VL: B5 VL with M4L, A9G, V13L, A64D, E74D, S81R, Q83E, S84P
notes: humanized
As for B6, the “Neutralizing activity IC50” value in assay [1] was 2 nM. Besides, in assay [2], the Kd was determined as 10 nM, the koff is 0.0002 s⁻¹ and the kon is 19000 M⁻¹ s⁻¹.

B7: h53A11-S4 (antibody, V domains shown)
VH: QVQLVQSGAEVKKPGASVKVSCKASGYTFTDYTMHWVRQAPGQRLEWMGGINPYYGGTTYNEKFKDRVTITRDTSASTAYMELSSLRSEDTAVYYCARGDYYGGSYNYWGQGTTVTVSS
VL: EIVMTQSPATLSVSPGERATLSCRASQDISNSLHWYQQKPGQAPRLLIKYASQSISGIPARFSGSGSGTEFTLTISSLQSEDFAVYYCQQSNSWPYTFGQGTKLEIK
Consider B7, for which the “Neutralizing activity IC50” value in the assay with cynomolgus monkey EL was 12 nM.

B8: h55A1-F5 (antibody, V domains shown)
VH: QVQLVQSGAEVKKPGASVKVSCKASGYTFTNYGMNWVRQAPGQGLEWMGWINTYSGVPTYAGDFKGRFTFTLDTSTSTAYMELSSLRSEDTAVYYCARRGYYGRRYFDVWGKGTTVTVSS
VL: DIQLTQSPSSLSASVGDRVTITCKASQSVDYDVDSYMHWYQQKPGKAPKLLIYAASNLASGVPSRFSGSGSGTDFTLTISSLQPEDFATYYCQQTIEDPPTFGGGTKVEIK
notes: humanized
Consider B8, for which the “Neutralizing activity IC50” value in assay [1] came out at 1.3 nM. In assay [2], this molecule gave a Kd of 0.11 nM, a koff of 1.6e-05 s⁻¹ and a kon of 140000 M⁻¹ s⁻¹.

B9: h55A1-F2 (antibody, V domains shown)
VH: B8 VH with F68V, F70M, L72T, S84R, E89D
VL: EIVMTQSPATLSVSPGERATLSCKASQSVDYDVDSYMHWYQQKPGQAPRLLIYAASNLASGIPARFSGSGSGTEFTLTISSLQSEDFAVYYCQQTIEDPPTFGGGTKVEIK
notes: humanized
B9: the “Neutralizing activity IC50” value in assay [1] is 2.1 nM. In assay [2], this molecule came in with a Kd of 0.17 nM, a koff of 2.6e-05 s⁻¹ and an association rate constant (kon) of 160000 M⁻¹ s⁻¹.

B10: h55A1-F4 (antibody, V domains shown)
VH: B8 VH with F68V, F70M, L72T, S84R, E89D
VL: B9 VL with M4L, A9G, V13L, A64D, E74D, S81R, Q83E, S84P
notes: humanized
Turning to B10, in assay [1], the “Neutralizing activity IC50” value came to 2.4 nM. Further, in assay [2], the Kd worked out at 0.22 nM, the koff is 3e-05 s⁻¹ and the kon is 140000 M⁻¹ s⁻¹.

B11: h55A1-F1 (antibody, V domains shown)
VH: B1 VH with A33G, G58P, F101Y, F106Y
VL: B8 VL with L77F, F87I
notes: humanized
Regarding B11, the “Neutralizing activity IC50” value in assay [1] was found to be 1.9 nM. Besides, in assay [2], the Kd was found to be 0.084 nM, the koff was determined as 1.7e-05 s⁻¹ and the kon was 200000 M⁻¹ s⁻¹.

B12: h55A1-F3 (antibody, V domains shown)
VH: B8 VH with F68V, F70M, L72T, S84R, E89D
VL: B8 VL
notes: humanized
Consider B12, for which the “Neutralizing activity IC50” value in assay [1] was determined as 1.1 nM. In assay [2], this molecule displayed a Kd of 0.29 nM, a koff of 3.3e-05 s⁻¹ and a kon of 110000 M⁻¹ s⁻¹.

B13: h55A1-F6 (antibody, V domains shown)
VH: B8 VH
VL: B9 VL
notes: humanized
As to B13, the “Neutralizing activity IC50” value in assay [1] came out at 2.3 nM. In assay [2], the Kd stood at 0.3 nM, the koff is 4.8e-05 s⁻¹ and the kon came out at 160000 M⁻¹ s⁻¹.

One may read the koff as a measure of how fast the partners let go of each other. In general, kon refers to the rate constant with which the complex forms.
